No end group written: not given here.
These binders were tested against T1, microbial transglutaminase from Streptomyces mobaraensis (MTG) (Streptomyces mobaraensis, UniProt P81453 77-407) (assay: cell-based or functional assay).
T1 sequence (looked up): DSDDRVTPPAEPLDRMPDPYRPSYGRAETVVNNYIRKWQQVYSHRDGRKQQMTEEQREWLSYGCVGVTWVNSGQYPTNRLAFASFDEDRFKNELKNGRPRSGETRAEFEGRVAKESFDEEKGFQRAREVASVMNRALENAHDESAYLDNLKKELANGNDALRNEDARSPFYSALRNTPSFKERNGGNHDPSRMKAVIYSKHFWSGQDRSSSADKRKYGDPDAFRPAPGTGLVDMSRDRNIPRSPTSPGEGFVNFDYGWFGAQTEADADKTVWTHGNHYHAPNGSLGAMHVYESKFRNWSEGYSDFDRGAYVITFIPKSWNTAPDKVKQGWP

| Binder | Log2(signal), array MTG labeling with N-(Biotinyl)cadaverine |
| --- | --- |
| EFALQ (also: flanked by G:S (3:1) linkers on peptide array) [EFALQ (SEQ ID NO: 23)] | 15.2 Log2(signal) |
| DFYLQ [DFYLQ (SEQ ID NO: 22)] | 15.2 Log2(signal) |
| PYVLQ (also: flanked by G:S (3:1) linkers on peptide array) [PYVLQ (SEQ ID NO: 16)] | 15.3 Log2(signal) |
| EYVAQ (also: flanked by G:S (3:1) linkers on peptide array) [EYVAQ (SEQ ID NO: 13)] | 15.3 Log2(signal) |
| YFALQ (not fully specified) [YFALQ (SEQ ID NO: 15)] | 15.3 Log2(signal) |
| DYFLQ [DYFLQ (SEQ ID NO: 8)] | 15.4 Log2(signal) |
| EFVAQ (also: flanked by G:S (3:1) linkers on peptide array) [EFVAQ (SEQ ID NO: 21)] | 15.2 Log2(signal) |
| EYALQ (also: flanked by G:S (3:1) linkers on peptide array) [EYALQ (SEQ ID NO: 4)] | 15.5 Log2(signal) |
| DYVAQ [DYVAQ (SEQ ID NO: 20)] | 15.2 Log2(signal) |
| EYVLQ (not fully specified; also: flanked by G:S (3:1) linkers on peptide array) [EYVLQ (SEQ ID NO: 6)] | 15.4 Log2(signal) |
| NYFLQ (also: flanked by G:S (3:1) linkers on peptide array) [NYFLQ (SEQ ID NO: 9)] | 15.4 Log2(signal) |
| DYTLQ [DYTLQ (SEQ ID NO: 11)] | 15.3 Log2(signal) |
| NFVLQ (not fully specified; also: flanked by G:S (3:1) linkers on peptide array) [NFVLQ (SEQ ID NO: 25)] | 15.2 Log2(signal) |
| NYALQ (also: flanked by G:S (3:1) linkers on peptide array) [NYALQ (SEQ ID NO: 3)] | 15.5 Log2(signal) |
| WYALQ (not fully specified) [WYALQ (SEQ ID NO: 17)] | 15.3 Log2(signal) |
| DYVLQ (also: flanked by G:S (3:1) linkers on peptide array) [DYVLQ (SEQ ID NO: 2)] | 15.5 Log2(signal) |
| NYVLQ (also: flanked by G:S (3:1) linkers on peptide array) [NYVLQ (SEQ ID NO: 12)] | 15.3 Log2(signal) |
| PYALQ (also: flanked by G:S (3:1) linkers on peptide array) [PYALQ (SEQ ID NO: 5)] | 15.4 Log2(signal) |
| FYALQ (also: flanked by G:S (3:1) linkers on peptide array) [FYALQ (SEQ ID NO: 10)] | 15.4 Log2(signal) |
| RYALQ (not fully specified) [RYALQ (SEQ ID NO: 14)] | 15.3 Log2(signal) |
| SYALQ (not fully specified) [SYALQ (SEQ ID NO: 18)] | 15.2 Log2(signal) |
| EYFLQ (also: flanked by G:S (3:1) linkers on peptide array) [EYFLQ (SEQ ID NO: 24)] | 15.2 Log2(signal) |
| DFALQ [DFALQ (SEQ ID NO: 7)] | 15.4 Log2(signal) |
| DYALQ [DYALQ (SEQ ID NO: 1)] | 15.5 Log2(signal) |
| HYALQ (also: flanked by G:S (3:1) linkers on peptide array) [HYALQ (SEQ ID NO: 19)] | 15.2 Log2(signal) |

Target: T1, microbial transglutaminase from …
Test: cell-based or functional assay
Remark: another data set of the same source

| Binder | A (array MTG labeling signal with Z-Gln-Gly-CAD-biotin) |
| --- | --- |
| RGSKL (also: flanked by G:S (3:1) linkers on peptide array) [RGSKL (SEQ ID NO: 59)] | 13.4 |
| TKSKL (not fully specified) [TKSKL (SEQ ID NO: 56)] | 13.4 |
| SKLSK (not fully specified) [SKLSK (SEQ ID NO: 71)] | 13.3 |
| KLGAK (also: flanked by G:S (3:1) linkers on peptide array) [KLGAK (SEQ ID NO: 72)] | 13.3 |
| PKTKL (also: flanked by G:S (3:1) linkers on peptide array) [PKTKL (SEQ ID NO: 66)] | 13.3 |
| KLKYK (also: flanked by G:S (3:1) linkers on peptide array) [KLKYK (SEQ ID NO: 65)] | 13.4 |
| GRSKL (also: flanked by G:S (3:1) linkers on peptide array) [GRSKL (SEQ ID NO: 69)] | 13.3 |
| FTKSK (also: flanked by G:S (3:1) linkers on peptide array) [FTKSK (SEQ ID NO: 64)] | 13.4 |
| RLKSK (also: flanked by G:S (3:1) linkers on peptide array) [RLKSK (SEQ ID NO: 67)] | 13.3 |
| FPKLK (also: flanked by G:S (3:1) linkers on peptide array) [FPKLK (SEQ ID NO: 61)] | 13.4 |
| RGTKL (also: flanked by G:S (3:1) linkers on peptide array) [RGTKL (SEQ ID NO: 60)] | 13.4 |
| RAKYK (also: flanked by G:S (3:1) linkers on peptide array) [RAKYK (SEQ ID NO: 70)] | 13.3 |
| QRSKL (also: flanked by G:S (3:1) linkers on peptide array) [QRSKL (SEQ ID NO: 73)] | 13.3 |
| RSKLG (not fully specified) [RSKLG (SEQ ID NO: 58)] | 13.4 |
| RSKLA (not fully specified) [RSKLA (SEQ ID NO: 68)] | 13.3 |
| KLSKL (also: flanked by G:S (3:1) linkers on peptide array) [KLSKL (SEQ ID NO: 57)] | 13.4 |
| RSKSK (not fully specified) [RSKSK (SEQ ID NO: 62)] | 13.4 |
| SKSKL (not fully specified) [SKSKL (SEQ ID NO: 63)] | 13.4 |
| KSKLA (also: flanked by G:S (3:1) linkers on peptide array) [KSKLA (SEQ ID NO: 55)] | 13.4 |
| ARSKL [ARSKL (SEQ ID NO: 54)] | 13.4 |

— patent publication US20170314054A1 (ROCHE SEQUENCING SOLUTIONS, published 2017)
